The results in this text go back to publication PMC10132761.

The target of this experiment is peptide encoding HTP-3 closure motif #4 (C. elegans). Briefly: fluorescence polarisation; 50 nM N-terminal FITC-Ahx peptide plus indicated amounts of HIM-3 (WT or R93Y); 20 mM Tris pH 7.5, 300 mM NaCl, 10% glycerol, 1 mM DTT, 0.1% NP-40; 60 minutes at room temperature; triplicate; single-site binding model. (Fluorescence polarisation rises when a labelled molecule tumbles more slowly, as on binding a larger partner.)

Broadly, the Kd is the concentration at which binding is half-saturated.

B1: HIM-3 (wildtype, residues 2-291) (natural protein)
chain: ATKEQIVEHRESEIPIASQWKATFPVDLEIEKNSEMFALRYIKCASAFILDRRGILDEKCFKTRTIDKLLVTAFQSSVPAAKRVSSTFDGLRDAIQQGYLREFAIVFYKKPNEEDINEVFAFRFAYGDEGEIFVSLNNGIDTNESSQELLQAKFVDTDNTKQMFASTIKKLHRCIKKMEPLPQGSDASFRVSYTEKAPKDYTPEGYLLSPMFYTLNQDIRKASIGIVCGGHHKIQMLAASQYLKQDFDLDKTTTLNPNMSIMANQSKRKGRISRDSPYGLSQGITKKNKD
Consider B1, for which the Kd was found to be 220 nM.

B2: HIM-3^R93Y (residues 2-291) (natural protein)
chain: ATKEQIVEHRESEIPIASQWKATFPVDLEIEKNSEMFALRYIKCASAFILDRRGILDEKCFKTRTIDKLLVTAFQSSVPAAKRVSSTFDGLYDAIQQGYLREFAIVFYKKPNEEDINEVFAFRFAYGDEGEIFVSLNNGIDTNESSQELLQAKFVDTDNTKQMFASTIKKLHRCIKKMEPLPQGSDASFRVSYTEKAPKDYTPEGYLLSPMFYTLNQDIRKASIGIVCGGHHKIQMLAASQYLKQDFDLDKTTTLNPNMSIMANQSKRKGRISRDSPYGLSQGITKKNKD
Consider B2, for which the dissociation constant (Kd) amounted to 690 nM.
